The test system of one experiment is 3×MBT domain of L3MBTL1. Briefly: Triple SILAC pull-down, 3xMBT/3xMBTD355N ratio (cytoplasmic, nuclear and chromatin fractions of 293T cells).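 For all read-outs here: proteins quantified with MaxQuant, requiring at least two unique peptides and quantification in both label directions, normalized to the mean of proteins from a digested loading control.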 Format: binding, human. The note with it: SILAC ratio, pull-down 3xMBT vs 3xMBTD355N; for 3xMBT/D355N UNC Heavy: experiment with UNC0638 in heavy SILAC media; for 3xMBT/D355N UNC Light: experiment with UNC0638 in light SILAC media.

A further experiment addresses T1, G9a and GLP (Homo sapiens, UniProt Q96KQ7+Q9H9B1).
T1 sequence (Q96KQ7 2-1210 limits assumed): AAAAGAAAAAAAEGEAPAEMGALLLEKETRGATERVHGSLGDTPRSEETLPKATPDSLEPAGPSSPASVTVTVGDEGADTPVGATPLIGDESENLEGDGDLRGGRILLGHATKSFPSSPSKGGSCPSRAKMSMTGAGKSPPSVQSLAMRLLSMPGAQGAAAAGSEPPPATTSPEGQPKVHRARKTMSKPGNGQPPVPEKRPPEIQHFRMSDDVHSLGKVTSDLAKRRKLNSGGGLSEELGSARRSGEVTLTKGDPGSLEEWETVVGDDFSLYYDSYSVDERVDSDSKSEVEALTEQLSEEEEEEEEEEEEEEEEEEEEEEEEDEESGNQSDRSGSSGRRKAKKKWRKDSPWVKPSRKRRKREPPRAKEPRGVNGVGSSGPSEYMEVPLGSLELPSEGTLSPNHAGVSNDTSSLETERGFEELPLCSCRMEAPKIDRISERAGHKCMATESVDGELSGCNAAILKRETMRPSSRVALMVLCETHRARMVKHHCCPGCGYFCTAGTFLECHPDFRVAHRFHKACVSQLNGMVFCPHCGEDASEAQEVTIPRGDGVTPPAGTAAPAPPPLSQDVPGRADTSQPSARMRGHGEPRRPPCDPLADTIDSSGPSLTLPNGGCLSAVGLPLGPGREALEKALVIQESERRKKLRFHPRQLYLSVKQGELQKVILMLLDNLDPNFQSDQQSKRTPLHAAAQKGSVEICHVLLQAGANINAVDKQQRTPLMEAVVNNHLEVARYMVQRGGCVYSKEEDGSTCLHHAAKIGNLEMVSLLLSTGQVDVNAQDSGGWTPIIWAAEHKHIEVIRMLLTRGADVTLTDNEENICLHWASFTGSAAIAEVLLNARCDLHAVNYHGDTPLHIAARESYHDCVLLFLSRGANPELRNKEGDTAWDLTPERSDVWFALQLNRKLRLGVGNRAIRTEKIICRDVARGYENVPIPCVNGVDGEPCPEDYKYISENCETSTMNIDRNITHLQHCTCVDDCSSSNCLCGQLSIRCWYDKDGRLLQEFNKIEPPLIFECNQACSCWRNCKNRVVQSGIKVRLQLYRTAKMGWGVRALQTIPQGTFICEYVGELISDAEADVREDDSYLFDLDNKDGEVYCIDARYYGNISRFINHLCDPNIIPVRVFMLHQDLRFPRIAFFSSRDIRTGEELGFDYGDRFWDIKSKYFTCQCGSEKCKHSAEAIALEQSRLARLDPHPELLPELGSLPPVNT
T1 sequence (Q9H9B1 2-1298 limits assumed): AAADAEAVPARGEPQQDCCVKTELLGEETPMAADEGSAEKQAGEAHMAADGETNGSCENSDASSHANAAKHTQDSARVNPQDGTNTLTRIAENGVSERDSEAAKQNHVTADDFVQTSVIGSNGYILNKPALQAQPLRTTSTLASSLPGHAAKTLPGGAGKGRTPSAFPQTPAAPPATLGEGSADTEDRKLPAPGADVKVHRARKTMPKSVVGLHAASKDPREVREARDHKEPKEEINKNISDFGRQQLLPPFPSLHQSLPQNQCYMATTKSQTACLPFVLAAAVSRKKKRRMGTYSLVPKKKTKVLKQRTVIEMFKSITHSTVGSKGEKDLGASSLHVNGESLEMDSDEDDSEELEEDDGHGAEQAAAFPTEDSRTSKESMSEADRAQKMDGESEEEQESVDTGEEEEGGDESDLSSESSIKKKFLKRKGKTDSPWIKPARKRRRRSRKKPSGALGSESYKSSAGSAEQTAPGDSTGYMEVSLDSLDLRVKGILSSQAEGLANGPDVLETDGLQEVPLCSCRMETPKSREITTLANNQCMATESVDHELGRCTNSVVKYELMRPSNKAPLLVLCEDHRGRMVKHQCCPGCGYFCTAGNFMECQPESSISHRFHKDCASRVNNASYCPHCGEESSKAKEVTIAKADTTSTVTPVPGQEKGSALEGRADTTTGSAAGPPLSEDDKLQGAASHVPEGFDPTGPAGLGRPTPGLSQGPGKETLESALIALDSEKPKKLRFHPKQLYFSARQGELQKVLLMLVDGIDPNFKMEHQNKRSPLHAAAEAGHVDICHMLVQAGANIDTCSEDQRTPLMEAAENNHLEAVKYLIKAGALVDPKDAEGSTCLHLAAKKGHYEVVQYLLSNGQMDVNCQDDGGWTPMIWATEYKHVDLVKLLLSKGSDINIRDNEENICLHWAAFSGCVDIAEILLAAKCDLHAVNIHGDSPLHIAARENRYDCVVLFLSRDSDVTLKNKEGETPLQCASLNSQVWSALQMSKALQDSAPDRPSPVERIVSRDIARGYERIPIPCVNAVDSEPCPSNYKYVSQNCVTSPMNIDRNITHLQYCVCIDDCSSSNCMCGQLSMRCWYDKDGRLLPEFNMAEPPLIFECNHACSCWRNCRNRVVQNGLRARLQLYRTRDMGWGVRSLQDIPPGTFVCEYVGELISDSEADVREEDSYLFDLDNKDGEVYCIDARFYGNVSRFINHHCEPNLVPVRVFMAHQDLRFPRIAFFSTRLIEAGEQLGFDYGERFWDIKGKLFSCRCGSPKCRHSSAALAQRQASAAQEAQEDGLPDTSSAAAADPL
The experiment can be described thus: Triple SILAC pull-down after UNC0638 treatment of 293T cells, DMSO/UNC0638 ratio of protein captured by 3×MBT.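 For all read-outs here: mass spectrometry (Q-Exactive) SILAC quantitation, DMSO/UNC0638 ratio computed after subtracting 3×MBTD355N mutant pull-down background, only proteins with at least twofold 3×MBT over mutant signal considered.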 Also on record: cells were treated for 24 hours with UNC0638 at 2.5 μM or DMSO vehicle control; endogenous in cells; host or cells: HEK 293T. It is filed as cell-based. The note with it: for Relative to UNC0638 UNC Heavy / Relative to UNC0638 UNC Light: SILAC ratio DMSO/UNC0638 of protein pulled down with 3xMBT; for Relative to UNC0638 UNC Heavy: UNC0638 in heavy SILAC media; for Relative to UNC0638 UNC Light: UNC0638 in light SILAC media; for Relative to UNC0638 Average: average of UNC Light and UNC Heavy experiments.

B1: PALLD (protein, UniProt Q8WX93 1-1383, looked up)
Palladin: MSGTSSHESFYDSLSDMQEESKNTDFFPGLSAFLSQEEINKSLDLARRAIADSETEDFDSEKEISQIFSTSPASLCEHPSHKETKLGEHASRRPQDNRSTPVQPLAEKQTKSISSPVSKRKPAMSPLLTRPSYIRSLRKAEKRGAKTPSTNVKPKTPHQRKGGPQSQLCDKAANLIEELTSIFKAAKPRNRSPNGESSSPDSGYLSPKNQPSALLSASASQSPMEDQGEMEREVKSPGARHCYQDNQDLAVPHNRKSHPQPHSALHFPAAPRFIQKLRSQEVAEGSRVYLECRVTGNPTPRVRWFCEGKELHNTPDIQIHCEGGDLHTLIIAEAFEDDTGRYTCLATNPSGSDTTSAEVFIEGASSTDSDSESLAFKSRAGAMPQAQKKTTSVSLTIGSSSPKTGVTTAVIQPLSVPVQQVHSPTSYLCRPDGTTTAYFPPVFTKELQNTAVAEGQVVVLECRVRGAPPLQVQWFRQGSEIQDSPDFRILQKKPRSTAEPEEICTLVIAETFPEDAGIFTCSARNDYGSATSTAQLVVTSANTENCSYESMGESNNDHFQHFPPPPPILETSSLELASKKPSEIQQVNNPELGLSRAALQMQFNAAERETNGVHPSRGVNGLINGKANSNKSLPTPAVLLSPTKEPPPLLAKPKLDPLKLQQLQNQIRLEQEAGARQPPPAPRSAPPSPPFPPPPAFPELAACTPPASPEPMSALASRSAPAMQSSGSFNYARPKQFIAAQNLGPASGHGTPASSPSSSSLPSPMSPTPRQFGRAPVPPFAQPFGAEPEAPWGSSSPSPPPPPPPVFSPTAAFPVPDVFPLPPPPPPLPSPGQASHCSSPATRFGHSQTPAAFLSALLPSQPPPAAVNALGLPKGVTPAGFPKKASRTARIASDEEIQGTKDAVIQDLERKLRFKEDLLNNGQPRLTYEERMARRLLGADSATVFNIQEPEEETANQEYKVSSCEQRLISEIEYRLERSPVDESGDEVQYGDVPVENGMAPFFEMKLKHYKIFEGMPVTFTCRVAGNPKPKIYWFKDGKQISPKSDHYTIQRDLDGTCSLHTTASTLDDDGNYTIMAANPQGRISCTGRLMVQAVNQRGRSPRSPSGHPHVRRPRSRSRDSGDENEPIQERFFRPHFLQAPGDLTVQEGKLCRMDCKVSGLPTPDLSWQLDGKPVRPDSAHKMLVRENGVHSLIIEPVTSRDAGIYTCIATNRAGQNSFSLELVVAAKEAHKPPVFIEKLQNTGVADGYPVRLECRVLGVPPPQIFWKKENESLTHSTDRVSMHQDNHGYICLLIQGATKEDAGWYTVSAKNEAGIVSCTARLDVYTQWHQQSQSTKPKKVRPSASRYAALSDQGLDIKAAFQPEANPSHLTLNTALVESEDL
Turning to B1, in the experiment on 3×MBT domain of L3MBTL1, the “3xMBT/D355N UNC Heavy” value was 2.50 log base 2 and the “3xMBT/D355N UNC Light” value is given as 2.31 log base 2. In the experiment with G9a and GLP, the “Relative to UNC0638 UNC Heavy” value is 0.26 log base 2, the “Relative to UNC0638 UNC Light” value is reported as 0.09 log base 2 and the “Relative to UNC0638 Average” value turned out to be 0.17 log base 2.

B2: HNRNPD (protein, UniProt Q14103 2-355, looked up)
Heterogeneous nuclear …: SEEQFGGDGAAAAATAAVGGSAGEQEGAMVAATQGAAAAAGSGAGTGGGTASGGTEGGSAESEGAKIDASKNEEDEGHSNSSPRHSEAATAQREEWKMFIGGLSWDTTKKDLKDYFSKFGEVVDCTLKLDPITGRSRGFGFVLFKESESVDKVMDQKEHKLNGKVIDPKRAKAMKTKEPVKKIFVGGLSPDTPEEKIREYFGGFGEVESIELPMDNKTNKRRGFCFITFKEEEPVKKIMEKKYHNVGLSKCEIKVAMSKEQYQQQQQWGSRGGFAGRARGRGGGPSQNWNQGYSNYWNQGYGNYGYNSQGYGGYGGYDYTGYNNYYGYGDYSNQQSGYGKVSRRGGHQNSYKPY
On to B2, for which, in the experiment on 3×MBT domain of L3MBTL1, the “3xMBT/D355N UNC Heavy” value came out at 4.07 log base 2 and the “3xMBT/D355N UNC Light” value is reported as 4.56 log base 2. Further, in the experiment with G9a and GLP, the “Relative to UNC0638 UNC Heavy” value stood at 0.06 log base 2, the “Relative to UNC0638 UNC Light” value stood at 0.29 log base 2 and the “Relative to UNC0638 Average” value is reported as 0.18 log base 2.

B3: U2AF2 (protein, UniProt P26368 2-475, looked up)
Splicing factor U2AF 65 kDa …: SDFDEFERQLNENKQERDKENRHRKRSHSRSRSRDRKRRSRSRDRRNRDQRSASRDRRRRSKPLTRGAKEEHGGLIRSPRHEKKKKVRKYWDVPPPGFEHITPMQYKAMQAAGQIPATALLPTMTPDGLAVTPTPVPVVGSQMTRQARRLYVGNIPFGITEEAMMDFFNAQMRLGGLTQAPGNPVLAVQINQDKNFAFLEFRSVDETTQAMAFDGIIFQGQSLKIRRPHDYQPLPGMSENPSVYVPGVVSTVVPDSAHKLFIGGLPNYLNDDQVKELLTSFGPLKAFNLVKDSATGLSKGYAFCEYVDINVTDQAIAGLNGMQLGDKKLLVQRASVGAKNATLVSPPSTINQTPVTLQVPGLMSSQVQMGGHPTEVLCLMNMVLPEELLDDEEYEEIVEDVRDECSKYGLVKSIEIPRPVDGVEVPGCGKIFVEFTSVFDCQKAMQGLTGRKFANRVVVTKYCDPDSYHRRDFW
In the case of B3, in the experiment with 3×MBT domain of L3MBTL1, the “3xMBT/D355N UNC Heavy” value came to 2.86 log base 2 and the “3xMBT/D355N UNC Light” value is given as 2.60 log base 2. In addition, in the experiment with G9a and GLP, the “Relative to UNC0638 UNC Heavy” value is 0.14 log base 2, the “Relative to UNC0638 UNC Light” value was 0.20 log base 2 and the “Relative to UNC0638 Average” value is 0.17 log base 2.

B4: PRPF4 (protein, UniProt O43172 1-522, looked up)
U4/U6 small nuclear …: MASSRASSTQATKTKAPDDLVAPVVKKPHIYYGSLEEKERERLAKGESGILGKDGLKAGIEAGNINITSGEVFEIEEHISERQAEVLAEFERRKRARQINVSTDDSEVKACLRALGEPITLFGEGPAERRERLRNILSVVGTDALKKTKKDDEKSKKSKEEYQQTWYHEGPNSLKVARLWIANYSLPRAMKRLEEARLHKEIPETTRTSQMQELHKSLRSLNNFCSQIGDDRPISYCHFSPNSKMLATACWSGLCKLWSVPDCNLLHTLRGHNTNVGAIVFHPKSTVSLDPKDVNLASCAADGSVKLWSLDSDEPVADIEGHTVRVARVMWHPSGRFLGTTCYDRSWRLWDLEAQEEILHQEGHSMGVYDIAFHQDGSLAGTGGLDAFGRVWDLRTGRCIMFLEGHLKEIYGINFSPNGYHIATGSGDNTCKVWDLRQRRCVYTIPAHQNLVTGVKFEPIHGNFLLTGAYDNTAKIWTHPGWSPLKTLAGHEGKVMGLDISSDGQLIATCSYDRTFKLWMAE
For the molecule B4, in the experiment with 3×MBT domain of L3MBTL1, the “3xMBT/D355N UNC Heavy” value amounted to 2.85 log base 2 and the “3xMBT/D355N UNC Light” value was determined as 2.26 log base 2. In the experiment with G9a and GLP, the “Relative to UNC0638 UNC Heavy” value came to 0.63 log base 2, the “Relative to UNC0638 UNC Light” value is −0.28 log base 2 and the “Relative to UNC0638 Average” value is reported as 0.18 log base 2.

These data come from US20140274782A1, “AFFINITY REAGENTS AND METHODS FOR DETECTION, PURIFICATION, AND PROTEOMIC ANALYSIS OF METHYLATED PROTEINS” (The Board of Trustees of the Leland Stanford Junior …, priority 2013, published 2014).
